Measured values: PMC10743851

Molecular target: actin (of the actin-chitin affinity column)
Assay: sequential dual-affinity chromatography; DBP of donor eluted from the 25-OH-D3/Sepharose column, loaded on the Actin/chitin column

Substance: vitamin D3-binding protein (DBP) of donor (from UniProt P02774 17-474) (natural protein)
- percent bound: < 10%
